The nanobody polyreactivity screen of Harvey et al. (2022)

Assay: yeast display, Sf9 membrane polyspecificity reagent, FACS + sequencing; frameworks hold sequencing errors
How it was run: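 Genes from sorted yeast were amplified by colony PCR, read by MiSeq 2 × 250 sequencing and filtered on CDR length. These cells carried a synthetic nanobody library in Saccharomyces cerevisiae BJ5465 and were sorted by FACS into low and high (top ~1%) gates on anti-HA and streptavidin fluorescence. Polyreactivity is labelled according to the gate of origin.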

QVQLVESGGGLVQAGGSLRLSCAASGSIFSGYVMGWYRQSPGKESELDAAISYSGGSKYYADSVKGRFTISRDNAKNTVYLQMNSLKPEDTAVYFCAAPGWLSQPRYRGYDYWGQGTQVSVSS
polyreactivity (PSR sort gate): high polyreactivity

QVQLVESGGGLVQAGGSLRLSCAASGSIFSHYAMGWYRQAPGKERELVARITWGGGSTYADCVKGRFTISRDNAKNTVYLQMKSLKPEDTAVYYCAAVPVGYDSDWGYYYWGQGTQVTVSS
polyreactivity (PSR sort gate): low polyreactivity

QVQLVESGGGLVQAGGSLRLSCAASGSIFSINAMGWYRQAPGKERELVAAINGSGGNTYYADSVKGRFTISRDNAKNTVYLQMNSLKPEDTAVYYCAAEGYSYWSFDELDYWGQGTQVTVSS
polyreactivity (PSR sort gate): low polyreactivity

QVQLVESGGGLVQAGGSLRLSCAASGSIFSKNARGWYRQAPGKERELVAAISWSGDRTYYADSVKGRFTISRDNAKNTVYLQMNSLKPEDTAVYYCAADYTVKYGYWGQGTQVTVSS
polyreactivity (PSR sort gate): high polyreactivity

QVQLVESGGGLVQAGGSLRLSCAASGSIFSKYAMGWYRQAPGKERELVAAITSSGGSTYYADSVKGRFTISRDNAKNTVYLQMNSLKPEDNAVYYCAAGGRSVRYNYWGQGTQVTVSS
polyreactivity (PSR sort gate): high polyreactivity

QVQLVESGGGLVQAGGSLRLSCAASGSIFSLYAMGWYRQAPGKERELVAAITWTGGSTYYADSVKGRFTISRDNAKNTVYLQMNSLKPEDTAVYYCDARRVVYRYYWYSAYDYWGRGTQVTVSS
polyreactivity (PSR sort gate): high polyreactivity

QVQLVESGGGLVQAGGSLRLSCAASGSIFSNYAMGWYRQAPGKERELVAAITWSGDDTYYADSVKGRFTISRDNAKTTVYLQMNSLKPVDTAVYYCAAEYHGYRYNYYPYSHYFIYESWGQGTQVTVSS
polyreactivity (PSR sort gate): high polyreactivity

QVQLVESGGGLVQAGGSLRLSCAASGSIFSPNARGWYRQAPGKEREVVAGISWSGDGTYYADSVKGRFTISRDYAKNTVYLQMNSLKPEDTAVYYCAARFGRYSHRYYYWGQGTQVTVSS
polyreactivity (PSR sort gate): high polyreactivity

QVQLVESGGGLVQAGGSLRLSCAASGSIFSPNDMGWYRQAPGKERELVAAITSAGSTYYADSVKGRFTISRDNAKNTVYLQMNSLKPDDTAVYYCAATYISVTDYAYFPLWYGYWGQGTQVTVSS
polyreactivity (PSR sort gate): low polyreactivity

QVQLVESGGGLVQAGGSLRLSCAASGSIFSPYAMGWYRQAPGKERELVAAISFRASTTYYADSVKGRFTISRDNAKNTVYLQMNSLKPEDTAVYYCSASALYSWFWGLYDYWGQGTQVTVSS
polyreactivity (PSR sort gate): low polyreactivity

QVQLVESGGGLVQAGGSLRLSCAASGSIFSPYAMGWYRQAPGKERELVAGISKSAGTTFYADSVKGRFTISRDNAKNTVYLQMNSLKPEDTAVYYCAADYYYPAWYLSDYWGQGTQVTVSS
polyreactivity (PSR sort gate): low polyreactivity

QVQLVESGGGLVQAGGSLRLSCAASGSIFSQNAMGWYRQAPGKEREFVAAIRWSAGSTYYADSVKGRFTISRDNAKNTVYLQMNSLKPEDTAVYYCNAALNVSGHYPNDYWGQGTQVTVSS
polyreactivity (PSR sort gate): low polyreactivity

QVQLVESGGGLVQAGGSLRLSCAASGSIFSQNAMGWYRQAPGKERELVAAITSSGGNTYADSVKGRFTISRDNAKNTVYLQMNRLKPEDTAVYYCAAGHLVILNRSEYYYWGQGTQVTVSS
polyreactivity (PSR sort gate): low polyreactivity

QVQLVESGGGLVQAGGSLRLSCAASGSIFSQYAMGWYRQAPGKERELVAAITYGGGSTYYADSVKGRFTISRDNAKNTVYLQMNSLKPEDTAVYYCAAGYWNDFDWGQGTQVTVSS
polyreactivity (PSR sort gate): low polyreactivity

QVQLVESGGGLVQAGGSLRLSCAASGSIFSRNAMGWYRQAPGKERELVAAITWSGGSTYYADSVKGRFTISRDNAKNTVYLQMNSLKPEDTAVYYCNAKRSSRIKQLEYDYWGQGTQVTVSS
polyreactivity (PSR sort gate): high polyreactivity

QVQLVESGGGLVQAGGSLRLSCAASGSIFSRNAMGWYRQARGKERELVAAISWRGGSTYYADSVKGRFTISRDNAKNTGYLQMNSLKPEDTAVYYCAAVYQFIKWGDRYEYWGQGTQVTVSS
polyreactivity (PSR sort gate): high polyreactivity

QVQLVESGGGLVQAGGSLRLSCAASGSIFSRYAMGWYIQAPGKERELVAAISTGGGRTYYADSVKGRFTISRDNAKNTVYLKMNSLKPEDTAVYYCAAPQQQSWTYDGRYGYWGQGTQVTVSS
polyreactivity (PSR sort gate): high polyreactivity

QVQLVESGGGLVQAGGSLRLSCAASGSIFSRYAMGWYRQAPGKERELVAAISRRGGTTYYADSVKGRFTISRDNAKNTVYLQMNSQKPVDTAVYYCAAVFVTQSFIYDYYYWGQGTQVTVSS
polyreactivity (PSR sort gate): high polyreactivity

QVQLVESGGGLVQAGGSLRLSCAASGSIFSRYAMGWYRQAPGKERELVAAITSSGGRTYYADSVKGRFTISRDNAKNTVYLQMNSLKPEDTAVYYCAAEYYYIVTYDFGYWGQGTQVTVSS
polyreactivity (PSR sort gate): low polyreactivity

QVQLVESGGGLVQAGGSLRLSCAASGSIFSRYAMGWYRQAPGKEREVVADISQRAGSTYYADSVKGRFTISRDNAKITVYLQMNSLKPEDTAVYYCAKPEAQVGGYWGYDYWGQGTQVTVSS
polyreactivity (PSR sort gate): high polyreactivity

QVQLVESGGGLVQAGGSLRLSCAASGSIFSSNVMGWYRQAPWKERELVAAITVRGSRTYYADSVKGRFTISRDNAKNTVYLQLNSLKPEDTAVYYCNAVARVLGSDRRLQYYYWGQGTQVTVSS
polyreactivity (PSR sort gate): high polyreactivity

QVQLVESGGGLVQAGGSLRLSCAASGSIFSSYAMGWYRQAPGKERELVAAISSGDSTYYADSVKGRFTISRDNAKNTVYLQMNSLKPEDTAVYYCAAPWYAWGQGTQVTVSS
polyreactivity (PSR sort gate): low polyreactivity

QVQLVESGGGLVQAGGSLRLSCAASGSIFSSYAMGWYRQAPGKERELVAAITSGGSTYYADSVKGRFTISRDNAKNTVYLQLFSLKPEDTAVYYCAARQVRTSKLHMGYWGQGTQVTVSS
polyreactivity (PSR sort gate): low polyreactivity

QVQLVESGGGLVQAGGSLRLSCAASGSIFSSYAMGWYRQAPGKERELVAAITSGGSTYYADSVKGRFTISRDNAKNTVYLQMNSLKPEDTAVYYCAAYRSYFGYDYWGQGTQVTVSS
polyreactivity (PSR sort gate): low polyreactivity

QVQLVESGGGLVQAGGSLRLSCAASGSIFSSYAMGWYRQAPGKERELVASISWRSGSTYYADSVKGRFTISRDNAKNTVYLQMNSLKPEDTAVYYCATAYYRYYKYRFYYWGQGTQVTVSS
polyreactivity (PSR sort gate): high polyreactivity

QVQLVESGGGLVQAGGSLRLSCAASGSIFSSYAMGWYRQAPGKEREMVAAITYSGGRTYYADSVKGRFTISRDNAKNTVYLQMNSLKPEDTAVYYCNARKYVGFWSRYDYWGQGTQVTVSS
polyreactivity (PSR sort gate): high polyreactivity

QVQLVESGGGLVQAGGSLRLSCAASGSIFSSYSMGWYRQAPGKERELVAAIDGSGGSTYADSVKGRFTISRDNAKNTVYLQMNSLKPEDTAVYYCAVDSFLVYSAVRPYDYWGHGTQVTVSS
polyreactivity (PSR sort gate): low polyreactivity

QVQLVESGGGLVQAGGSLRLSCAASGSIFSTNAMGCYIQAPGKERELVAVITGIGGITYYADSVKGRFTISRDNAKNTVYVQMNSLKPEDTAVYYCAADPISEFYWGVKDRYDYWGQGTQVTVST
polyreactivity (PSR sort gate): low polyreactivity

QVQLVESGGGLVQAGGSLRLSCAASGSIFSTNAMGWYRQAPGKERELVATISGADGTNYADSVKGRFTISRDNAKNTVYLQMNSLKPEDTAVYYSNAFPWPVYRGYYWGQGTQVTVSS
polyreactivity (PSR sort gate): low polyreactivity

QVQLVESGGGLVQAGGSLRLSCAASGSIFSTNAMGWYRQAPWKERELVAGISSDDSTYADSVKGRFTISRDNAKNTVNLQMNSLKPEDTAVYNCAAEDNWYNVGYYYRGQGTQVTVSS
polyreactivity (PSR sort gate): low polyreactivity

QVQLVESGGGLVQAGGSLRLSCAASGSIFSTNGMGWYRQAPGKERELVAAISTGGRTYYADSVKGRFTISRDNAKNTVYLQMNSLKPEDTAVYYCAKRFGYRSTQILDYWGQGTQVTVSS
polyreactivity (PSR sort gate): low polyreactivity

QVQLVESGGGLVQAGGSLRLSCAASGSIFSTYAMGWYRQAPGKERELVAAISKSGGSTYYADSVKGRFTISRDNAKNTVYLQMNSLKPEDTAVYYCAATRWYGYKRWGYDYWGQGTQVTVSS
polyreactivity (PSR sort gate): high polyreactivity

QVQLVESGGGLVQAGGSLRLSCAASGSIFSTYAMGWYRQAPGKERELVAAISQGGSSTYYADSVKGRFTISRDNAKNTVYLQMNSLKPEDTAVYYCATPYSWYHRVYGYDYWGQGTQVTVSS
polyreactivity (PSR sort gate): high polyreactivity

QVQLVESGGGLVQAGGSLRLSCAASGSIFSVYAMGWYRQAPGKERELVASITSGGRTKYADSVKGRFTISRDNAKNTVYLQMNSLKQEDTAVYYCAKDGGGLLRWYTDEYDYWGQGTQVTVSS
polyreactivity (PSR sort gate): low polyreactivity

QVQLVESGGGLVQAGGSLRLSCAASGSIFSVYAMGWYRQAPGKERELVATISGSAGRTYYADSVKGRFTISRDNAKNTVYLQMNSLKPEDTAVYYCAARWYKEYYWGQRTQVTVSS
polyreactivity (PSR sort gate): high polyreactivity

QVQLVESGGGLVQAGGSLRLSCAASGSIFSVYARGSYRQAPGKERELVAGITRGGSTYADSVKGRFTISRDNAKNPVYLQMNSLKPEDTAVYYCNAQTRIVKDRLRSDYWGQGTQVTVSS
polyreactivity (PSR sort gate): high polyreactivity

QVQLVESGGGLVQAGGSLRLSCAASGSIFSWYAMGWYRQAPGKERELVATITWRGGSTYYADSVKGRFTISRDNAKNTVYLQMNSLKPEDTAVYYCAARVPDPYTSYRYPPYYYWGQGTQVTVSS
polyreactivity (PSR sort gate): low polyreactivity

QVQLVESGGGLVQAGGSLRLSCAASGSIFSYAMGWYRQAPGKERELVAAISRRGGRTYYADSVKGRFTISRDNEKYTVYLQMNSLKPEDTAVYYCAASGRNRKDGLYEYYYWGQGTQVTVSS
polyreactivity (PSR sort gate): high polyreactivity

QVQLVESGGGLVQAGGSLRLSCAASGSIFSYNAMGWYRQAPGKERELFAAITWSGGSTYYADSVKGRFTISRDNAKNTVYLQMNSLKPEDTAVYYCAAKGGYSTGRPTYTKFNYWGQGTQVTVSS
polyreactivity (PSR sort gate): high polyreactivity

QVQLVESGGGLVQAGGSLRLSCAASGSIFSYNAMGWYRQAPGKERELVAAINNGGSTYYADSVKGRFTISRDNAKNTVYLQMNSLKPEDTAVYYCNTARRHCQTQGGDYWGQGTQVTVSS
polyreactivity (PSR sort gate): high polyreactivity

QVQLVESGGGLVQAGGSLRLSCAASGSIFSYNLMGWYRQAPGKERELVAAITRSCGSTYYADSVKGRFTISRDNAKNTVYLQMNSLKQEDTAVYYCAVGWADQDPFIMDFWGQGTQVTVSS
polyreactivity (PSR sort gate): low polyreactivity

QVQLVESGGGLVQAGGSLRLSCAASGSIFSYNVMGGYRQAPGKERELVAVITGSGGSTYYADSVKGRFTISRDNAKNTVYLQMNSLKPEDTAVYYCNKDRGTIPPSGNDYWGQGTLVTVSS
polyreactivity (PSR sort gate): low polyreactivity

QVQLVESGGGLVQAGGSLRLSCAASGSIFSYYAMGWYRQAPGKERELVAAISLSTSGTHYADSVKGRFTISRDNAKNTVYLQMNSLKPEDTAVYYCAARQGYPVFLYNSRYGYWGQGTQVTVSS
polyreactivity (PSR sort gate): low polyreactivity
